Results on three molecules are retold here after patent US8309097 (VERENIGING VOOR CHRISTELIJK WETENSCHAPPELIJK ONDERWIJS, dated 2012).

Numbering of substitutions follows the chain as printed. Names may count otherwise. Where two headings read alike, the source gives them in different places.

Assay [1] deals with T1, ICAM-3 coated on fluorescent beads (UniProt P32942 30-485).
T1 sequence: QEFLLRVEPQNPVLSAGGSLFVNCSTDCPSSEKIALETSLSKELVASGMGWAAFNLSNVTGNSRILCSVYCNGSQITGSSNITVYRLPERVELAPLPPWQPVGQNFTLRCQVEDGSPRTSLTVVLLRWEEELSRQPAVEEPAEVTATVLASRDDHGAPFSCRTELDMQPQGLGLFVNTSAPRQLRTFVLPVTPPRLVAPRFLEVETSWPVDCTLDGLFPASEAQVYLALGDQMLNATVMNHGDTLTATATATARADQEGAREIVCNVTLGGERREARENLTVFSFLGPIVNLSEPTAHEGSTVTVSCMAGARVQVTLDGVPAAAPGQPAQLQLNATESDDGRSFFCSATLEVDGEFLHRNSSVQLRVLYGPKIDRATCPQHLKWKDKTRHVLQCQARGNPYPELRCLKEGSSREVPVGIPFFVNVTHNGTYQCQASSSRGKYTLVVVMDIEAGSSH

The target of the next assay is T2, ICAM-3-Fc (UniProt P32942 30-485).
T2 construct: also called pIG-ICAM-3-Fc product; Fc chimera of ICAM-3
T2 sequence (looked up): T1 sequence
Description: beads coated with ICAM-3-Fc, immature DC and K562-DC-SIGN.

The target in assay [2] is T1, ICAM-3 coated on fluorescent beads. As to the kind of experiment: fluorescent bead adhesion assay, K562 transfectants.
For another assay, the target named is T3, ICAM-3 from granulocytes (UniProt P32942 30-547).
T3 construct: also called ICAM-3 captured or immunoprecipitated from granulocyte lysate
T3 sequence (looked up): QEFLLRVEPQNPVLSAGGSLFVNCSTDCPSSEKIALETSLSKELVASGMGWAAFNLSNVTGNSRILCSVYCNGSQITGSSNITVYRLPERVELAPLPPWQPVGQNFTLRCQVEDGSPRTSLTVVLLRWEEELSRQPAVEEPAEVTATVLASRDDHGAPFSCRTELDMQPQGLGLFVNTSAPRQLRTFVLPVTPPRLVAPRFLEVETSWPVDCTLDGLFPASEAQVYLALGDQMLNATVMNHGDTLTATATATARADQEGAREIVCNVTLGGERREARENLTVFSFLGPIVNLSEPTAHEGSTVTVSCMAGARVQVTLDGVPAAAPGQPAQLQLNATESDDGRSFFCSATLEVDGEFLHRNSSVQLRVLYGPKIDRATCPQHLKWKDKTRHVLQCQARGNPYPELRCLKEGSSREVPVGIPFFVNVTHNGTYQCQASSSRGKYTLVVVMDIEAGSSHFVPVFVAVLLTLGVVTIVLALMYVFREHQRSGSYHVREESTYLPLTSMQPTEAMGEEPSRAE
As to the kind of experiment: ELISA: ICAM-3 captured from granulocyte lysate by coated antibody, DC-SIGN-Fc added (FIG. 22C). (An ELISA detects its analyte on a solid surface through an enzyme-linked reagent.)

B1: DC-SIGN (CD209), wild type, expressed on K562 transfectants or immature dendritic cells (receptor, human, UniProt Q9NNX6 1-404, looked up)
chain: MSDSKEPRLQQLGLLEEEQLRGLGFRQTRGYKSLAGCLGHGPLVLQLLSFTLLAGLLVQVSKVPSSISQEQSRQDAIYQNLTQLKAAVGELSEKSKLQEIYQELTQLKAAVGELPEKSKLQEIYQELTRLKAAVGELPEKSKLQEIYQELTWLKAAVGELPEKSKMQEIYQELTRLKAAVGELPEKSKQQEIYQELTRLKAAVGELPEKSKQQEIYQELTRLKAAVGELPEKSKQQEIYQELTQLKAAVERLCHPCPWEWTFFQGNCYFMSNSQRNWHDSITACKEVGAQLVVIKSAEEQNFLQLQSSRSNRFTWMGLSDLNQEGTWQWVDGSPLLPSFKQYWNRGEPNNVGEEDCAEFSGNGWNDDKCNLAKFWICKKSAASCSRDEEQFLSPAPATPNPPPA
notes: whole, on cells; also called cellular DC-SIGN; K562-DC-SIGN
Take B1: the binding result (in assay [1]; with ICAM-3-Fc) was “binds” each time.

B2: DC-SIGN E347Q mutant expressed by K562 cells (receptor)
chain: B1 chain with E347Q
notes: whole, on cells
Take B2: the binding result in assay [2] is “no binding”.

B3: DC-SIGN-Fc (Fc fusion, human, UniProt Q9NNX6 64-404, looked up, not shown: a dimerising Fc or GST)
chain: PSSISQEQSRQDAIYQNLTQLKAAVGELSEKSKLQEIYQELTQLKAAVGELPEKSKLQEIYQELTRLKAAVGELPEKSKLQEIYQELTWLKAAVGELPEKSKMQEIYQELTRLKAAVGELPEKSKQQEIYQELTRLKAAVGELPEKSKQQEIYQELTRLKAAVGELPEKSKQQEIYQELTQLKAAVERLCHPCPWEWTFFQGNCYFMSNSQRNWHDSITACKEVGAQLVVIKSAEEQNFLQLQSSRSNRFTWMGLSDLNQEGTWQWVDGSPLLPSFKQYWNRGEPNNVGEEDCAEFSGNGWNDDKCNLAKFWICKKSAASCSRDEEQFLSPAPATPNPPPA
notes: range 64-404; also called soluble DC-SIGN-Fc; DC-SIGN-Fe
As for B3, the binding result with ICAM-3 from granulocytes is recorded as “no binding”.
